Tests used:
[1] = system: T1, H-βAla-Arg-Arg-Met-Lys-Trp-Lys-Lys-NH2
T1 sequence: RRMKWKK

[2] = system: T2, 4-[Succinimidopropionoyl-(H-Cys-βAla-Arg-Arg-Met-Lys-Trp-Lys-Lys-NH2)]epipodophyllotoxin
T2 sequence: CRRMKWKK

[3] = system: T3, 4′-Demethyl-4-[acetyl-(H-Cys-βAla-Arg-Arg-Met-Lys-Trp-Lys-Lys-NH2)]epipodophyllotoxin
T3 sequence: CRRMKWKK

[4] = system: T4, 4′-Demethyl-4-[4″-aminoanilino-(succinimidopropionoyl)-(H-Cys-bAla-Arg-Arg-Met-Lys-Trp-Lys-Lys-NH2)]-epipodophyllotoxin
T4 sequence: CRRMKWKK

[5] = system: T5, 4-[Succinimidopropionoyl-(H-Cys-βAla-Arg-Arg-Met-Lys-Trp-Lys-Lys-NH2)]podophyllotoxin
T5 sequence: CRRMKWKK

purified recombinant human topoisomerase II
Activity observed (topoisomerase II cleavage and relaxation assays on plasmid DNA) [1]: - | Activity observed (topoisomerase II cleavage and relaxation assays on plasmid DNA) [2]: IC | Activity observed (topoisomerase II cleavage and relaxation assays on plasmid DNA) [3]: IC | Activity observed (topoisomerase II cleavage and relaxation assays on plasmid DNA) [4]: I | Activity observed (topoisomerase II cleavage and relaxation assays on plasmid DNA) [5]: -
